Our source for the self-cleavage values is the RNAGym collection of RNA variant scans (doi:10.7554/elife.90254).

First the molecules themselves.
B1: OR4K15 (parent)
chain: GUUAACGGUCAUAGGCCAUGGAAACUAGGAGCACCAUUUCGCUGCCAGUGAAGAAAUGAACAAAGAAAAUCUGGGCCAGGCAGGCAUCAAAAGAAAUAGUCUUGCGCUCAACCAGAAAGUCUGUAAUCAUUUUAAGGGUA

Variants of B1 are the subject of the series. Kind of series: self-cleavage, relative activity (ratio to wild type); higher = more cleavage; in vitro, sequencing; the parent is a self-cleaving ribozyme.
In the case of C10A U124C, the self-cleavage came out at 0.79.
On to G7A A114U, for which the self-cleavage was found to be 0.06.
The figure for U9A A91G is 0.37; for G7U U19C it is 1.79; for C6U A94G it is 1.68.
As for U9C U120G, the self-cleavage is 1.39.
Regarding G8A U133G, the self-cleavage was determined as 2.78.
In the case of U9G A117G, the self-cleavage was determined as 2.41.
U9G A117C: the self-cleavage was 0.41.
Turning to U9A U37C, the self-cleavage was 1.63.
As to A11C A118U, the self-cleavage amounted to 0.72.
To A11C A118G belongs 2.4; to U9C A135G, 1.5.
Turning to U9C A135U, the self-cleavage is 0.57.
To U9C A140G belongs 1.33; to U9C U132C, 1.45; to U9C U132G, 1.94.
Consider U9A G80U, for which the self-cleavage turned out to be 0.2.
U9C G136A: the self-cleavage was determined as 2.13.
Turning to U9G A91U, the self-cleavage turned out to be 1.26.
For the variant G7U G104A, the self-cleavage was determined as 0.05.
Turning to G8C, the self-cleavage worked out at 1.16.
Take G8U: the self-cleavage was 1.49.
As for G8A, the self-cleavage was 1.61.
To G7A G74U belongs 0.2; to C10U A63U, 0.69.
As to G7A G44U, the self-cleavage was found to be 1.28.
To U9G A96G belongs 1.46; to G7A G79A, 0.11; to G7A A18C, 1.98.
On to G7A A18G, for which the self-cleavage is 0.64.
Regarding C10U U39C, the self-cleavage worked out at 1.02.
With U9A A18G, the self-cleavage was 1.79.
In the case of G7U U39C, the self-cleavage turned out to be 0.54.
As for C6U U26A, the self-cleavage came out at 0.53.
Consider U9G G83A, for which the self-cleavage is 1.07.
For C6U U19G, the self-cleavage came to 0.77.
As to U9A A23U, the self-cleavage is 1.59.
Take G8A U70C: the self-cleavage turned out to be 1.22.
To A11C U49C belongs 1.57; to U9A G58U, 0.65; to U9C U103C, 1.13.
As for U9C U103A, the self-cleavage was determined as 1.9.
The figure for C10A U38A is 0.81; for U9C U139C it is 2.45; for U9C A30G it is 1.13.
On to C6U A134G, for which the self-cleavage worked out at 1.38.
For C10U U87C, the self-cleavage turned out to be 1.08.
For the variant C6U U38C, the self-cleavage turned out to be 1.48.
Consider G8A A96G, for which the self-cleavage amounted to 1.97.
To U9A A33G belongs 0.9; to U9C A86G, 1.18.
Consider G7C U72A, for which the self-cleavage was found to be 0.38.
For the variant U9G A89G, the self-cleavage is 1.46.
For A11C A69G, the self-cleavage turned out to be 1.7.
To U9C A98U belongs 1.32.
Turning to G7A U12C, the self-cleavage worked out at 1.33.
As for U9G A78G, the self-cleavage was 0.26.
To C10A A86G belongs 0.31; to G7U U131C, 1.14; to G8A U19A, 1.92.
Regarding C10U A110G, the self-cleavage came to 0.19.
To G7A U131G belongs 1.7; to G7A U131C, 1.36; to C6U G44A, 1.34.
As for U9C C88U, the self-cleavage came to 1.34.
On to G7U A59G, for which the self-cleavage was determined as 0.98.
To U9C A89U belongs 1.25; to U9C A89G, 1.45.
Turning to U9C A63U, the self-cleavage is 1.83.
As for U9A C77A, the self-cleavage stood at 0.08.
The figure for U9A A69G is 1.27.
Consider G7A A66G, for which the self-cleavage was determined as 1.18.
On to C6U C46U, for which the self-cleavage turned out to be 1.03.
Regarding G7A U37C, the self-cleavage stood at 2.58.
Turning to U9A U103C, the self-cleavage was determined as 0.49.
On to C6U U120C, for which the self-cleavage was 0.33.
For the variant G7A A116U, the self-cleavage came out at 0.33.
With G7U A92G, the self-cleavage is 1.66.
Regarding A11C U37C, the self-cleavage came to 0.79.
U9C A96G: the self-cleavage is 1.35.
To U9A G15C belongs 0.57.
As for A11C A78C, the self-cleavage is 0.16.
Take U9C A66G: the self-cleavage was 0.9.
Take G7U U12C: the self-cleavage amounted to 0.79.
In the case of U9A A59U, the self-cleavage worked out at 1.81.
U9A A59G: the self-cleavage stood at 1.12.
In the case of C10U U132C, the self-cleavage is 1.26.
For the variant C6U A117U, the self-cleavage is 1.1.
On to G7A U70A, for which the self-cleavage turned out to be 1.94.
The figure for G7C A47U is 1.4.
G7A U87C: the self-cleavage was 1.25.
With G8A A18G, the self-cleavage was determined as 0.78.
In the case of C6U A116G, the self-cleavage stood at 0.34.
With U9G U102C, the self-cleavage was 2.28.
As to G8A A22G, the self-cleavage was 1.39.
For the variant U9A A125G, the self-cleavage came to 0.76.
As for U9A U139A, the self-cleavage amounted to 1.31.
Turning to G8A A95G, the self-cleavage stood at 1.52.
On to G7A A22G, for which the self-cleavage stood at 1.42.
In the case of G7A A22U, the self-cleavage worked out at 1.51.
Consider G7U A135U, for which the self-cleavage is 2.23.
For the variant C10A A68G, the self-cleavage stood at 0.85.
As for G7U U70A, the self-cleavage worked out at 1.27.
On to U9C U100C, for which the self-cleavage amounted to 2.18.
As for U9C A68G, the self-cleavage was determined as 1.51.
To C6U A52G belongs 0.59; to C10U U131C, 0.47; to C6U U102A, 1.22.
For the variant C6U A69G, the self-cleavage is 1.05.
Regarding G7A A27G, the self-cleavage amounted to 1.3.
C6U U100C: the self-cleavage is 1.18.
On to U9G A62U, for which the self-cleavage was determined as 0.44.
The figure for C10U A55G is 0.52.
Turning to G8A C32U, the self-cleavage worked out at 2.12.
Take G8C U43C: the self-cleavage was found to be 2.42.
In the case of U9C U37A, the self-cleavage was determined as 2.35.
With U9A A64G, the self-cleavage came out at 1.1.
As for G7A A36U, the self-cleavage was determined as 1.54.
For the variant U9A A36U, the self-cleavage was determined as 1.2.
Take U9C C34U: the self-cleavage stood at 1.01.
C6U U57A: the self-cleavage is 0.77.
For U9C C112A, the self-cleavage was 0.03.
To U9C G75A belongs 0.08; to U9A A114G, 0.33.
As for U9A A114U, the self-cleavage was determined as 0.07.
For G7U A67G, the self-cleavage is 1.28.
For the variant U9A C42A, the self-cleavage worked out at 0.53.
The figure for U9C A91U is 1.49; for G8A U102C it is 2.44; for C10U U103C it is 1.16.
As for U9A A134G, the self-cleavage was determined as 1.66.
In the case of G8C A64G, the self-cleavage was 2.95.
Take C10U A56G: the self-cleavage was 0.84.
To U9C U127C belongs 1.44; to U9C U127A, 2.67; to C6U A110G, 0.19.
To C6U G79U belongs 0.11.
As for G7U A56G, the self-cleavage came to 1.29.
For U9A A118G, the self-cleavage came to 0.9.
To G7A U124C belongs 1.03; to U9G U57A, 0.51.
G8A U120C: the self-cleavage turned out to be 1.57.
To G7A A111G belongs 0.03; to U9C A62U, 2.18; to G7U A47G, 1.17.
Regarding U9A U97A, the self-cleavage is 1.03.
To G7U A111G belongs 0; to G8A C35U, 0.52.
To G7U U108C belongs 0.02; to G7U U108A, 0.06; to C6U A56G, 0.64.
As to U9A U108A, the self-cleavage is 0.
Take C6U A64G: the self-cleavage amounted to 1.46.
To U9A A22G belongs 1.7; to G7A A82U, 0.14; to G7A A117G, 0.51.
C6U G74A: the self-cleavage was 0.46.
C6U G20U: the self-cleavage was found to be 1.06.
To U9G U72A belongs 0.19; to U9C A129G, 1.37.
With U9C A129U, the self-cleavage came out at 0.98.
Consider U9C A129C, for which the self-cleavage amounted to 0.68.
The figure for G7A A52G is 1.25; for G7U A117G it is 1.7; for U9C C45U it is 1.07.
Consider C10A A118G, for which the self-cleavage was found to be 1.99.
